Reference: patent US8669347B2, “Truncated variant of the mammalian target for rapamycin (MTOR) protein” (UCL Business PLC, priority 2007, dated 2014)

Legend:
[1] = test system: S6K1; assay: mTOR in vitro kinase assay, His-S6K1C substrate; format: biochemical; conditions: FLAG immunoprecipitate from Hek293 cells, compared with mTORα
Experimental: (§1) HEK293 cells were transfected with pcDNA3.1 or pcDNA 3.1 mTORβ. One day later, cells were starved for 24 hours and than stimulated with 10% fetal bovine serum for 1 hour. Rapamycin (10 nM) was added 30 minutes before stimulation. Cells were lysed, resolved by SDS-PAGE and immunobloted with the C-terminal anti-mTOR and pS2448 mTOR antibodies. […] Two days later, cells were lysed and immunoprecipitated with anti-FLAG antibody. The immune complexes were used in mTOR in vitro kinase assay with His-4E-BP1 and His-S6K1C as substrates. Kinase reactions were resolved by SDS-PAGE and immunoblotted with phosphospecific antibodies to 4E-BP1 p65 and S6K1 p389. The level of immunoprecipitated FLAG-mTORα and FLAG-mTORβ was measured by Western blotting with anti-FLAG.
(§2) Is mTORβ able to phosphorylate S6K and 4E-BP1, which are the main physiological substrates for mTORα? […] The immune complexes were then used in mTOR kinase reactions, containing cold ATP and recombinant 4E-BP1 or His-S6K1C. The kinase reactions were resolved by SDS-PAGE and immunoblotted with phosphospecific antibodies pT389-S6K1 and pS65-4E-BP1.
(§3) mTOR in vitro kinase assay was performed as published previously (Kim et al. 2002). […] The reactions were stopped by adding 5× sample buffer and resolved by SDS-PAGE and analyzed by immunoblotting.

[2] = test system: 4E-BP1; assay: mTOR in vitro kinase assay, 4E-BP1 substrate; format: biochemical; conditions: FLAG immunoprecipitate from Hek293 cells, recombinant 4E-BP1 substrate, compared with mTORα
Experimental: as §1, §2, §3

[3] = test system: Raptor, Rictor, and GβL; assay: Co-immunoprecipitation with mTOR binding partners in HEK293 cells; conditions: anti-FLAG immunoprecipitation from transfected HEK293 cells
Experimental: HEK293 cells were transfected with pcDNA3.1-mTORβ-FLAG and pRK-Raptor-HA or pcDNA3.1-mTORβ-FLAG and pRK-Rictor-Myc or pcDNA3.1-mTORβ-FLAG and pcRK-GβL. The supernatants of lysed cells were immunoprecipitated with anti-FLAG antibody or control nonspecific antibody. The immune complexes or total cell lysates from transfected cells (15 μg) were resolved by SDS-PAGE and probed in Western blotting with anti-HA, anti-Rictor, or anti-GβL antibodies.
HEK293 cells were washed with ice-cold phosphate-buffered saline (PBS) and extracted with the lysis buffer containing 50 mM HEPES (pH 7.5), 150 mM NaCl, 1% (v/v) Triton X100, 2 mM EDTA, 50 mM sodium fluoride, 10 mM sodium pyrophosphate, 1 mM sodium orthovanadate, and a mixture of protease inhibitors (Roche Applied Science). Whole-cell extracts were centrifuged at 10,000×g for 30 minutes at 4° C. Endogenous or transiently expressed proteins were immunoprecipitated with corresponding antibodies immobilized on protein A-Sepharose beads (Amersham Biosciences) for 3 hours at 4° C. The immune complexes were then washed once with Tris-buffered saline containing 0.05% Tween 20 and the Wash Buffer 1 (50 mM HEPES [pH 7.5], 40 mM NaCl, and 2 mM EDTA) with 1% Triton X-100, Wash Buffer 1 with 500 mM LiCl and 0.5% Triton X-100, Wash Buffer 1 with 500 mM LiCl, and Wash Buffer 2 (50 mM HEPES [pH 7.5] and 150 mM NaCl). […]

[4] = test system: Hek293 stable cell lines; assay: Cell proliferation assay (Resazurin based) of Hek293 stable cell lines; parameters: species or system human; conditions: six independent studies
Experimental: (§4) Hek293 stable cell lines, over-expressing mTORβ wt, mTORα wt or EGFP were seeded into a 96 well plate at various densities (250, 500, 1000 and 2000 cells per well) and grown under standard conditions for 7 days. Cell numbers were than measured in each well by a Resosurin based assay. Normalized growth curves for each cell line were calculated using data from six independent experiments (A). Western blot analysis of total cell lysates of stable cell lines with antibodies to c-myc and its transcription targets (B). The level of proteins was densitometrically measured, actin normalized and folds were calculated against EGFP expressing stable cell line (C).
(§5) HEK293 stable cell lines, overexpressing mTORβ wt, mTORβ kinase-dead or EGFP were seeded into 96 well plate at various densities (1000, 2000, 4000 and 8000 cells per well) and grown under standard conditions for 5 days. Cell numbers were then measured in each well by Resazurin based assay. Normalized growth curves for each cell line were calculated using data from six independent experiments (A). Western blot analysis of total cell lysates of stable cell lines with antibodies to c-myc and its transcription targets. The level of proteins was densitometrically measured, actin normalized and folds were calculated against EGFP expressing stable cell line (B). […]

[5] = test system: c-Myc; assay: Western blot of c-Myc protein level in transfected HEK293 cells; format: cell-based, human; conditions: HEK293 transiently transfected, lysed two days after transfection
Experimental: as §4, §5

[6] = test system: Hek293 cells; assay: BrdU pulse-chase cell cycle analysis by FACS; format: cell-based, human; conditions: overexpressing cells vs mTORα or control (EGFP) cells; BrdU 30 minutes, chased 24 hours
Experimental: HEK293 cells stably overexpressing mTORβ, mTORα or EGFP were pulse labeled with BrdU for 30 minutes and chased every 2 hours for 24 hours. The incorporation of BrdU was measured by FACS analysis. Duration of G1, S and G2 phases of cell cycle observed for each cell line is presented on graph. SD, p=0.05.
To further investigate the role of mTORβ in the cell cycle, Hek293 cells overexpressing mTORβ, mTORα or EGFP were pulse labeled with BrdU for 30 minutes and chased every 2 hours for 24 hours. Incorporation of BrdU into the cells was measured by FACS analysis. The duration of the G1, S and G2 phases of cell cycle observed for each cell line was determined (see FIG. 12). The duration of S and G2 phases were similar in all three cell groups. However, the duration of the G1 phase was shorter in the mTORβ overexpressing cells than in the mTORα or control cells.

[7] = test system: Hek293 stable cell lines; assay: Serum starvation cell survival, Trypan Blue dye exclusion assay; format: cell-based, human; conditions: stable overexpressing lines serum starved for 60 hours
Experimental: Hek293 stable cell lines, overexpressing mTORβ wt, mTORα wt, mTORβ kinase dead or EGFP were serum starved for 60 hours. Cell survival was assessed by the Trypan Blue dye exclusion assay. Data are means±SE of 5 experiments. * P value≦0.01.
The effects of mTORβ in serum starved cells were also assessed. Hek293 stable cell lines, overexpressing mTORβ wt, mTORα wt, mTORβ kinase dead or EGFP were serum starved for 60 hours. Cell survival was assessed by the Trypan Blue dye exclusion assay.

[8] = test system: Hek293 cells; assay: Colony formation in agarose (oncogenic potential); format: cell-based, human; conditions: stably overexpressing cells, 14 days, MTT stain, compared with mTORα and control cells
Experimental: HEK293 cells stably overexpressing mTORβ, mTORα or EGFP were plated in a thin layer of agarose in culture medium. After 14 days, colonies were stained using MTT (A). Colonies were counted using Quantity One Software (Bio-Rad) and folds were plotted (B). Data are means±SE of 4 experiments. * P value≦0.01.
To further investigate the effect of mTORβ expression on cell oncogenic potential, Hek293 cells stably overexpressing mTORβ, mTORα or EGFP were plated in a thin layer of agarose in culture medium. After 14 days, colonies were stained using MTT (see FIG. 14A). Colonies were counted using quantity 1 software (Bio-Rad) and folds were plotted (see FIG. 14B).

[9] = test system: Hek293 cells; assay: Recovery from Sorbitol-induced stress; format: cell-based, human; conditions: overexpressing cells, compared with mTORα overexpressing cells

B1: mTORβ: splice form of mTOR: fusion of amino acids 1 to 23 and 1867 to 2549 of mTORα, 706 amino acids (SEQ ID NO: 2) (protein, listed as Homo sapiens)
chain: MLGTGPAAATTAATTSSNVSVLQKKVTEDLSKTLLMYTVPAVQGFFRSISLSRGNNLQDTLRVLTLWFDYGHWPDVNEALVEGVKAIQIDTWLQVIPQLIARIDTPRPLVGRLIHQLLTDIGRYHPQALIYPLTVASKSTTTARHNAANKILKNMCEHSNTLVQQAMMVSEELIRVAILWHEMWHEGLEEASRLYFGERNVKGMFEVLEPLHAMMERGPQTLKETSFNQAYGRDLMEAQEWCRKYMKSGNVKDLTQAWDLYYHVFRRISKQLPQLTSLELQYVSPKLLMCRDLELAVPGTYDPNQPIIRIQSIAPSLQVITSKQRPRKLTLMGSNGHEFVFLLKGHEDLRQDERVMQLFGLVNTLLANDPTSLRKNLSIQRYAVIPLSTNSGLIGWVPHCDTLHALIRDYREKKKILLNIEHRIMLRMAPDYDHLTLMQKVEVFEHAVNNTAGDDLAKLLWLKSPSSEVWFDRRTNYTRSLAVMSMVGYILGLGDRHPSNLMLDRLSGKILHIDFGDCFEVAMTREKFPEKIPFRLTRMLTNAMEVTGLDGNYRITCHTVMEVLREHKDSVMAVLEAFVYDPLLNWRLMDTNTKGNKRSRTRTDSYSAGQSVEILDGVELGEPAHKKTGTTVPESIHSFIGDGLVKPEALNKKAIQIINRVRDKLTGRDFSHDDTLDVPTQVELLIKQATSHENLCQCYIGWCPFW
phosphorylation of S6K1 (pT389) in vitro [1]: to a lesser extent than mTORα
phosphorylation of 4E-BP1 (pS65) in vitro [2]: to a lesser extent than mTORα
complex formation with exogenously expressed Raptor, Rictor, and GβL [3]: form specific complexes
proliferation rate in comparison to control (EGFP) cells ([4]; overexpressing stable lines grown 5 days): approximately 1.6 times faster
proliferation compared to control (EGFP) cells ([4]; overexpressing stable lines grown 7 days): proliferate faster
c-Myc protein level [5]: significant increase
duration of the G1 phase [6]: shorter
cell survival after serum starvation [7]: protected cells from starvation induced cell death
cell oncogenic potential (colonies in agarose) [8]: increase in cell oncogenic potential
recovery from Sorbitol-induced stress [9]: much faster
